These results are taken from patent US6610479.

The target in series [1] is human serum albumin (HSA) (UniProt P02768).
For series [2], the target named is streptavidin (on Dynabeads) (UniProt P22629).
In series [3] the target is human IgG (on Sepharose, Pharmacia) (human). Kind of series: cell-based or functional assay.

UniProt P22629, sequence (P22629 whole entry, looked up): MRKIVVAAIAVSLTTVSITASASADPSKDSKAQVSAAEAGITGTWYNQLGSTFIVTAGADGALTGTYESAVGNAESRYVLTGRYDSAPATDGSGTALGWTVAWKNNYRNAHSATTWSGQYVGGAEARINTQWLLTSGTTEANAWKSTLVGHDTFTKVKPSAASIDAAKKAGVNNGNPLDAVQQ

For the substance “TagTaq fusion protein (Bio-His6-ABP fused to Taq DNA polymerase I residues 3-832)”, in series [1], the “hot start PCR of K-ras (primer-dimer formation)” value is recorded as “using either a conventional hot start procedure (lane 8) or immobilized TagTaq polymerase (lanes 1 to 3), high yields of essentially pure, full-length PCR products free from primer-dimers are obtained”; the “hot-start effect in kRAS PCR (primer-dimer formation)” value was “All the immobilised enzymes show hot-start effect in PCR with regard to preventing primer-dimer formation”; the “primer extension (190 nt product) at 60° C., immobilized enzyme” value was “TagTaq protein: HSA-Sepharose incubated with the substrate at the same temperature resulted in only very small amounts of the 190 nt extension product”; the “relative polymerase activity at 45-75° C. and after 95° C.” value is “TagTaq indeed is active in the presence of HSA-Sepharose, but only after incubation at a temperature high enough to break the ABP-HSA affinity interaction”. The “hot-start effect in kRAS PCR (primer-dimer formation)” value in series [2] is “All the immobilised enzymes show hot-start effect in PCR with regard to preventing primer-dimer formation”.
In the case of “Z-ΔTaq fusion protein (from UniProt P0AD92 1-8; P38507 212-269; P19821 236-832) (enzyme)”, in series [3], the Peak area of the 190-bp extension product, heat-released enzyme (95° C.-treated Z-ΔTaq-human IgG-Sepharose) was 8380; the Peak area of the 190-bp extension product, immobilized enzyme (polymerase activity at 50° C.) turned out to be 594; the increase of the area of the 190-peak, free or heat-released enzyme against enzyme on beads heated only to 50° C. is above 15 times.
